Reference: article PMC5404317
Where a chain is given by its changes, count along the chain named. Numbers in names are those of the source. Values belong to the binder of their own block, whether it stands above or below them.

Target: HSP90, P07900
Assay: co-immunoprecipitation (V5 agarose) with western blot quantification
Settings: chain shown with the change, HeLa cells, read off a plot
[1] = 10 μM CCCP for 2 h, parent: est. 0.82
[2] = untreated (no CCCP), parent: est. 1.0

response (HSP90/V5 ratio) [1]: 0.42 | response (HSP90/V5 ratio) [2]: 0.54
B1: PINK1-V5 WT (V5-6xHis-tagged PINK1 wild type), Q9BXM7 L347P (protein)
chain: AARLQRQFVVRAWGCAGPCGRAVFLAFGLGLGLIEEKQAESRRAVSACQEIQAIFTQKSKPGPDPLDTRRLQGFRLEEYLIGQSIGKGCSAAVYEATMPTLPQNLEVTKSTGLLPGRGPGTSAPGEGQERAPGAPAFPLAIKMMWNISAGSSSEAILNTMSQELVPASRVALAGEYGAVTYRKSKRGPKQLAPHPNIIRVLRAFTSSVPLLPGALVDYPDVLPSRLHPEGLGHGRTLFLVMKNYPCTLRQYLCVNTPSPRLAAMMLLQLPEGVDHLVQQGIAHRDLKSDNILVELDPDGCPWLVIADFGCCLADESIGLQLPFSSWYVDRGGNGCLMAPEVSTARPGPRAVIDYSKADAWAVGAIAYEIFGLVNPFYGQGKAHLESRSYQEAQLPALPESVPPDVRQLVRALLQREASKRPSARVAANVLHLSLWGEHILALKNLKLDKMVGWLLQQSAATLLANRLTEKCCVETKMKMLFLANLECETLCQAALLLCSWRAAL

response (HSP90/V5 ratio) [1]: 0.62 | response (HSP90/V5 ratio) [2]: 0.6
B2: PINK1-V5 WT (V5-6xHis-tagged PINK1 wild type), Q9BXM7 I368N (protein)
chain: B1 chain with P270L, I291N
